According to article PMC10704370:

Target: YmgB (purified, biotinylated) (Escherichia coli) (UniProt P75993)
Experiment: BLI; biotinylated YmgB or YmgB^R74G immobilised on streptavidin biosensors, SpoT^TGS-Helical 2-50 μM as analyte; Blitz, 25 °C; 50 mM Tris-HCl pH 8.0, 500 mM NaCl, 500 mM KCl, 2 mM β-mercaptoethanol, 2% glycerol, BSA 1 mg/ml; KD from steady-state responses, one site model

Chain of UniProt P75993 (P75993 whole entry): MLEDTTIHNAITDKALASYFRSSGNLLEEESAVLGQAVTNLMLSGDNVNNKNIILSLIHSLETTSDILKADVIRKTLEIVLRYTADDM

- Kd: 8.73 µM
Substance: SpoT^TGS-Helical (purified) (domain or fragment)
